Numbering of substitutions follows the chain as printed.

In assay [1] the target is T1, human PD-L1 expressed on the cell surface (CHO cells expressing human PD-L1; Promega CS187103 / 187103 cells) (human, UniProt Q9NZQ7 19-290). The assay is described as follows: cell-based or functional assay.
Assay [2] has as its target T2, recombinant mouse PD-L1 Fc chimera (Sino Biologicals, cat #50010-M02H) (mouse, UniProt Q9EP73 19-238).
T2 construct: Fc part of the bought chimera not given
Put plainly: ELISA on directly coated mouse PD-L1 Fc chimera (1 ug/mL), detection anti-human kappa light chain-HRP. How it is done:
(§1) Recombinant human PD-L1 Fc chimera (Sino Biological, cat #10084-H02H), recombinant cynomolgous monkey PD-L1 Fc chimera (Sino Biological, cat #90251-C02H), recombinant mouse PD-L1 Fc chimera (Sino Biologicals, cat #50010-M02H) and recombinant human PD-L2 Fc chimera protein (Sino Biological, cat #10292-H02H) were coated directly onto the ELISA plates at 1 ug/mL by overnight incubation at 4° C. The plates were washed 3× with PBS 0.05% TWEEN® and dried by tapping several times on paper towels. All the plates were blocked with 200 uL of 1% milk for 1 hr at RT. […] Fifty μL of the diluted antibodies were added to the respective wells in all the plates. Positive control antibody (mouse anti-human PD-L1, 29E.2A3, (BioLegend, cat #329702) and its isotype control mouse IgG2b k (BioLegend, cat #400302) were serially diluted 3-fold in 1% milk starting at 3 ug/mL to 0.1 ng/mL and 50 uL of the titrated antibodies were added to their respective plates/wells. Similarly rat anti mouse PD-L1 (BioLegend, cat #124302) and rat IgG2b isotype (BioLegend, cat #400622), anti-human PD-L2 (BioLegend, cat #345502) with mouse IgG1 isotype (BioLegend, cat #4011402) were titrated as above and added to its respective plates/wells. The plates were incubated for 1 hr at RT. […] For the control wells, appropriate secondary antibodies, goat anti mouse HRP (Southern Biotech, cat #1033) and mouse anti rat HRP (Southern Biotech, cat #3070-05), were diluted and incubated as above. After repeating the wash and drying step, the plates were developed for 20-30 min with 50 uL TMB substrate (BD OPTEIA®, cat #555214). The reaction was stopped with 50 uL of 2N H2SO4 and absorbance at 450 nm was read on a SPECTRAMAX® Gemini™ spectrophotometer.
In general terms: ELISA stands for enzyme-linked immunosorbent assay.

Assay [3] concerns the target T3, recombinant human PD-L2 Fc chimera protein (Sino Biological, cat #10292-H02H) (human, UniProt Q9BQ51 20-219).
T3 construct: Fc part of the bought chimera not given
T3 sequence (looked up): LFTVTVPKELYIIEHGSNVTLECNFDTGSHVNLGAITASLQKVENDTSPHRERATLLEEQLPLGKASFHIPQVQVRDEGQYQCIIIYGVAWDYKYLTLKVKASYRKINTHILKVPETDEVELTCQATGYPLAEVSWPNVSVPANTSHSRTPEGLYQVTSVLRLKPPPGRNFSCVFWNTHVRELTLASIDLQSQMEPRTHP
Put plainly: ELISA on directly coated human PD-L2 Fc chimera (1 ug/mL), detection anti-human kappa light chain-HRP. The method, then: as §1

In assay [4] the target is T1, human PD-L1 expressed on the cell …. Put plainly: cell-based or functional assay. The source holds these as a separate data set.
The target is the same in assay [5]. The assay is described as follows: cell-based or functional assay. The source holds these as a separate data set.
For assay [6], the target named is T4, recombinant cynomolgus monkey PD-L1 Fc chimera (Sino Biological, cat #90251-C02H) (cynomolgus monkey, UniProt G7PSE7 19-239).
T4 construct: also called Cyno PD-L1; Fc part of the bought chimera not given
The assay is described as follows: ELISA on directly coated cynomolgus PD-L1 Fc chimera (1 ug/mL), detection anti-human kappa light chain-HRP. The method, then:
as §1

Assay [7] addresses T1, human PD-L1 expressed on the cell …. The assay is described as follows: flow cytometry competition on CHO cells expressing human PD-L1; cells pre-incubated with unlabeled antibody, then Alexa Fluor 647-labeled 3C5 (1 µg/mL). How it is done: (§2) Antibody cross-blocking analysis was conducted by the following method. […] Fluorescent staining intensities were determined using the FACSCalibur™ system. Competition of by the identical antibody was a positive control while the lack of competition by the irrelevant antibody was a negative control.

Assay [8] shares this target. Put plainly: flow cytometry competition on CHO cells expressing human PD-L1; cells pre-incubated with unlabeled antibody, then Alexa Fluor 647-labeled S70 (1 µg/mL). The method, then:
as §2

T2 sequence (Q9EP73 19-238, stated change not applied): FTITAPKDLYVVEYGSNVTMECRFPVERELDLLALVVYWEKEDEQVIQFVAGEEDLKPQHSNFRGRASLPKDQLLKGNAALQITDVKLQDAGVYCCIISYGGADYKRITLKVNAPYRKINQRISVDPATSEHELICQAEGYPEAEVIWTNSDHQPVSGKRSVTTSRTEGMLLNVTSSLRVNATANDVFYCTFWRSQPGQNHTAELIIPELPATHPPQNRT
T1 sequence (Q9NZQ7 19-290): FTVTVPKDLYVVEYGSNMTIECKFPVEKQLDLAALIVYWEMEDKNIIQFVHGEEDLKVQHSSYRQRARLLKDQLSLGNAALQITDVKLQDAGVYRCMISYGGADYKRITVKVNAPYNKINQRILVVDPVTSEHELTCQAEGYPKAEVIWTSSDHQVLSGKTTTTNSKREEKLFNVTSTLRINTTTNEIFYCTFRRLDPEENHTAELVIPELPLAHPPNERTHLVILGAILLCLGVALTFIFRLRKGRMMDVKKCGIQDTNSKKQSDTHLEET
T4 sequence (G7PSE7 entry or part of it C02H C02H): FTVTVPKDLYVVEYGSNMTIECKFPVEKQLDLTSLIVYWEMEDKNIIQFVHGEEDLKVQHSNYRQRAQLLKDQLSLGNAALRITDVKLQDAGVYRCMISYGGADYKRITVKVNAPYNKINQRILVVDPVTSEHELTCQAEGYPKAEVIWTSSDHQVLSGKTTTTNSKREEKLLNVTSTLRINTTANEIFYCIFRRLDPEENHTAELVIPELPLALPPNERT

B1: 3C5-2G12 IgM antibody (antibody)
heavy: QVQLKESGPGLVAPSQSLSITCTVSGFSLTSYDISWVRQPPGKGLEWLGVIWTGVGTNYNSAFMSRLSISKDNSKSQVFLKMNSLQTDDTAMYYCVRDPYYYGMDYWGQGTSVTVSSGSASAPTLFPLVSCENSPSDTSSVAVGCLAQDFLPDSITFSWKYKNNSDISSTRGFPSVLRGGKYAATSQVLLPSKDVMQGTDEHVVCKVQHPNGNKEKNVPLPVIAELPPKVSVFVPPRDGFFGNPRKSKLICQATGFSPRQIQVSWLREGKQVGSGVTTDQVQAEAKESGPTTYKVTSTLTIKESDWLSQSMFTCRVDHRGLTFQQNASSMCVPDQDTAIRVFAIPPSFASIFLTKSTKLTCLVTDLTTYDSVTISWTRQNGEAVKTHTNISESHPNATFSAVGEASICEDDWNSGERFTCTVTHTDLPSPLKQTISRPKGVALHRPDVYLLPPAREQLNLRESATITCLVTGFSPADVFVQWMQRGQPLSPEKYVTSAPMPEPQAPGRYFAHSILTVSEEEWNTGETYTCVVAHEALPNRVTERTVDKSTGKPTLYNVSLVMSDTAGTCY
light: DIQMNQSPSSLSASLGDTITITCRASQDISIWLSWYQQKPGNIPELLIYKASNLHTGVPPRFSGSGSGTDFTLTISSLQPEDIATYYCLQSQSFPRTFGGGTKLEIKRTVAAPSVFIFPPSDEQLKSGTASVVCLLNNFYPREAKVQWKVDNALQSGNSQESVTEQDSKDSTYSLSSTLTLSKADYEKHKVYACEVTHQGLSSPVTKSFNRGEC
As usually defined, the EC50 (read off the curve) is the concentration giving half of the maximal effect. B1: in assay [1], the “EC50 in the PD-1/PD-L1 blockade assay (luciferase reporter activity, 4 parameter curve fit)” value was 61000 nM. The binding result in assay [2] and in assay [3] was “no binding (tested: 3 ug/mL)” each time. In assay [4], the “EC50, PD-1/PD-L1 blockade (PDL1 Blockade, luciferase signal)” value (“EC50 … (PDL1 Blockade, luciferase signal)” below) turned out to be 0.094 nM. Also, in assay [5], the “EC50, PD-1/PD-L1 blockade (% PDL1 Blockade, NFAT-luciferase reporter)” value came out at 0.061 nM. Further, the “EC50 (read off the curve)” value in assay [6] was around 7 ng/mL.

B2: 3C5-2G12 IgM + J antibody (antibody)
heavy: B1 heavy
light: B1 light
chain: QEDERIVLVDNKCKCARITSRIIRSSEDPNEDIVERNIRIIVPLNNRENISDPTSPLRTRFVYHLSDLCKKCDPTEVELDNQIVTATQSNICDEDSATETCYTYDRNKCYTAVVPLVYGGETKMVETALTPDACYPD
notes: also called 3C5.2G12 IgM+wtJ; 3C5.2G12 IgM+J chain
With B2, in assay [1], the “EC50 in the PD-1/PD-L1 blockade assay (luciferase reporter activity, 4 parameter curve fit)” value was 96000 nM. In addition, the binding result in assay [2] and in assay [3] was “no binding (tested: 3 ug/mL)” in each case. Also, the “EC50, PD-1/PD-L1 blockade (% PDL1 Blockade, NFAT-luciferase reporter)” value in assay [5] is 0.096 nM. For the same molecule, the “EC50 (read off the curve)” value in assay [6] was around 8 ng/mL.

B3: 3C5-2G12 IgG1 antibody (antibody)
heavy: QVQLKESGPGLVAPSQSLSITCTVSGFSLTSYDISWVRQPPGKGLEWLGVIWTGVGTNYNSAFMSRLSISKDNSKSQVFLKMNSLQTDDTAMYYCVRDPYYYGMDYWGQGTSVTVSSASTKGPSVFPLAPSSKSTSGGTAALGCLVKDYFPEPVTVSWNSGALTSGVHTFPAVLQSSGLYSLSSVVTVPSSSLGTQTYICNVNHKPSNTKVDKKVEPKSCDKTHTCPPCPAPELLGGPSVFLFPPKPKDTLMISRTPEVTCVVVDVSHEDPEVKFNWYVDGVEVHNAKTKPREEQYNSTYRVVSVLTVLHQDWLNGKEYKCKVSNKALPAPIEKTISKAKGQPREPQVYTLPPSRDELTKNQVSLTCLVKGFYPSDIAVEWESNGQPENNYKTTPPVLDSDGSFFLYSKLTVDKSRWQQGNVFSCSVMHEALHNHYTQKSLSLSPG
light: B1 light
notes: also called 3C5 (IgG); 3C5 antibody (IgG format)
Take B3: the binding result in assay [2] and in assay [3] was “no binding (tested: 3 ug/mL)” in each case. For the same molecule, the “EC50 … (PDL1 Blockade, luciferase signal)” value in assay [4] is 0.251 nM. For the same molecule, the “IC50 (read off the curve)” value in assay [7] was around 10 ng/mL; in assay [8] it was around 20 ng/mL. Moreover, the “EC50, PD-1/PD-L1 blockade (% PDL1 Blockade, NFAT-luciferase reporter)” value in assay [5] worked out at 0.21 nM. In assay [6], the “EC50 (read off the curve)” value is around 6 ng/mL.

B4: h3C5H3-h3C5L2 (humanized 3C5, IgG) (antibody, V domains shown)
VH: QVQLQESGPGLVKPSETLSITCTVSGFSLTSYDISWVRQPPGKGLEWLGVIWTGVGTNYNPSFKSRLTISKDTSKNQVSLKMSSLTAADTAVYYCVRDPYYYGMDYWGQGTLVTVSS
VL: DIQMTQSPSSLSASVGDRITITCRASQDISIWLSWYQQKPGKAPKLLIYKASNLHTGVPSRFSGSGSGTDFTLTISSLQPEDFATYYCLQSQSFPRTFGQGTKLEIKR
B4: the “EC50 … (PDL1 Blockade, luciferase signal)” value in assay [4] turned out to be 0.214 nM.

B5: h3C5H2-h3C5L2 (humanized 3C5, IgG) (antibody, V domains shown)
VH: B4 VH with I20L, V37I, F63L, L67V, V78F, M82L, L85V, V96A
VL: B4 VL
Regarding B5, the “EC50 … (PDL1 Blockade, luciferase signal)” value in assay [4] was found to be 0.381 nM.

B6: h3C5H4-h3C5L2 (humanized 3C5, IgG) (antibody, V domains shown)
VH: B4 VH with V37I, T73N
VL: B4 VL
Consider B6, for which the “EC50 … (PDL1 Blockade, luciferase signal)” value in assay [4] came to 0.296 nM.

B7: h3C5H1-h3C5L1 (humanized 3C5, IgG) (antibody, V domains shown)
VH: B4 VH with I20L, V37I, L48I, F63L, L67V, K71V, V78F, M82L, L85V, V96A
VL: B4 VL with I19V
For the molecule B7, the “EC50 … (PDL1 Blockade, luciferase signal)” value in assay [4] is 0.221 nM.

Source of the values: patent US20240002514A1 (IGM BIOSCIENCES, published 2024).
